This assay deals with intracellular calcium release in NBL cells. The experiment in a line: ATP-stimulated calcium release in NBL cells (Fura2 imaging). It is filed as cell-based, human. The note with it: 1 μM ATP, vs empty vector. The method, then: Pharmacodynamics—Bioassay of Calcium Release: Fifteen mm glass coverslips (cat #72228 Electron Microscopy Sciences, Hatfield, PA) were coated with poly-D-Lysine (Sigma) followed by Laminin and 1×10^5 cells were seeded on each coverslip. Twenty-four hrs later, cells were transfected with AAV2-ITR, AAV2-V5-Car10, or AAV2-V5-CA10 vectors as previously described. In embodiments wherein AAV2 is not employed, other expression vectors (including viral vectors) are used. Fura-2AM (cat #F1221 ThermoFisher scientific, Waltham, MA) was dissolved in DMSO (50 μg in 50 μl) and 1% pluronic acid-127 (cat #P2443 Sigma, St Louis, MO) as the stock solution. Forty eight hrs after seeding, cells were loaded with 2 μM Fura-2AM dye for 45 min at room temperature in the dark in a standard Ca+2 buffer solution containing: 125 mM NaCl, 2 mM MgCl, 4.5 mM KCl, 10 glucose, 20 mM HEPES, 2 mM CaCl2, pH 7.4.25. Following dye loading, coverslips were washed with Ca^+2 buffer solution. […] Regions of interest over the field of view were selected and the mean pixels intensity at each frame was measured. Data was plotted as ratio fluorescence intensity versus time and subsequently converted to a relative scale. […]

B1: CA10: human carbonic anhydrase 10, overexpressed (V5-tagged) protein; SEQ ID NO: 9 (protein)
chain: MEIVWEVLFLLQANFIVCISAQQNSPKIHEGWWAYKEVVQGSFVPVPSFWGLVNSAWNLCSVGKRQSPVNIETSHMIFDPFLTPLRINTGGRKVSGTMYNTGRHVSLRLDKEHLVNISGGPMTYSHRLEEIRLHFGSEDSQGSEHLLNGQAFSGEVQLIHYNHELYTNVTEAAKSPNGLVVVSIFIKVSDSSNPFLNRMLNRDTITRITYKNDAYLLQGLNIEELYPETSSFITYDGSMTIPPCYETASWIIMNKPVYITRMQMHSLRLLSQNQPSQIFLSMSDNFRPVQPLNNRCIRTNINFSLQGKDCPNNRAQKLQYRVNEWLLK
modifications: V5 tag
On to B1, for which the ATP-stimulated calcium release entry is “inhibited”.
